Experiment: soluble on expression in E. coli; label from the status in PepcDB or PDB records

Row | Sequence | soluble on expression in E. coli
1 | MSLKIDIHPLTHDPTSAWKELSKSQRVIKINTKPPAVDVPSNKVRVVCMSDTHSLTHHIKFDIPDGDIFIHAGDFTRCGKLDEVVDFNEWLKKLPHKHKLVIAGNHELSFDHTFTHPFQNASACCKKTGSTLLDEIPTLGNSKESLAEAVKTENIRQYLSSCTYLQDECVELYGLKIYGTPWQPEFCKWAFNVKRGQACLEKWEQIPENVDILVTHTPPVGHGDLCCSGVRAGCVELLATVQQRVKPKYHVFGHVHEGYGITSDGRIIFVNASTCDINYLPNNQPIVFDVTLPKGRTKDEGHHHHHH | soluble
2 | MNDGNSRTPYNSLYKPLNLIKSKPDGCCKHNGQCPYGKNQAESVDDGNSRTPYNSIYEPLSLNKSKPDSQCSNGKKPADDEYVNLLLPQSKEEQVAEKLADKLRKLEVKESKGKRRGSKERKKKKPEPVESTYESLASIEGSTNFSGPVTTESLESNVKCHHASQTAYIGVYSSADAEAQVKNRGEFALYHQFEVGNRLDHLTATLPLMLVYYTTTKKHRHYPVRKSGDNGTVQYSVDCGYPIVRKHFSINQLVLYYKTFGSIQMKQEDICSEEFSWWLE | not soluble
3 | INDWSYSIGANFSYVTTKIMDLKGGDTPGQSVGDPLWAYYGYVCDGIFQNEEEIKNHPTQSMGTPVPGDLKYRDLNGDKVVDSKDRQVLGSYFPKINFGLNLSVQYKDFDLSALLQGAADVKSAPVAEIRYAFYNGGKVTEQHLDRWTPENPNATYPRLSMSDSKNRVTSSFWMQDASYAKLRNLQVGYSLPKQLISKYGISRLRVYCSIDNLFMISGFDGVDPEAISGNYYPLTRNYSFGLNVTF | not soluble
4 | MGSDKIHHHHHHMKKILVVSHGAALGGSPISGLNIGRHIDKNQFEVIYAFGEEREIFDIAKKEGFKVFFVPKRSYLTIWDYAKIICREKIDIVHLNTLTSYYKYPAMAAWLCRKKIVWFVRENPEEKRCVRLGKYINALADRIVTVSLDTAKKMFYANHAKLCTIYNGIDLKFKKIEGRERLCEELGLSAREKYILCVASLEERKGVKDLVRAFLSSLPKLQGYKLLIVGEDRTKEQRYFLELKELAKDSSEVIFYGKSQKIQQLLSLSELFVLPSYWEGMARVILEAMACGLPVVASDAGGNREQVMDGVNGFLFPPRDIQALSAALEKAILGGRTQLLGKNSRELLEKNFDIKETTKKIENLYKAL | not soluble
5 | MGSDKIHHHHHHMIKRNAAKPVRVAPPMMEEQEVSTSTLQELLEKEETVSNLIFSKGREEGISKSYKSFKNCTFRNQTFSECKFRSSQLADIRFENCDLSNISFAESSLYRVEFIACKLLGTNLSETTMNHVLLHDCNASYINLAMSKMNQVRFSHCHFRNGSFNDCRFSSVAFDSCDLVEADFSHAPLRGIDLRTSRIGGITLNISDLKGAVITSLQAMDLLPLLGVIIED | not soluble
6 | MYGEWGMGNILMMFHVYLVQGFRSEHGPVKDFSFERSSRSMLERSEQQIRAASSLEELLQIAHSEDWKLWRCRLKLKSLASMDSRSASHRSTRFAATFYDL | not soluble
7 | MKDPRIEKLAYNLINYSIRLQKGEKVLIENFGLQKELVTALVKEAYAAGGFPFVSLKDHQVDRSLLMGATEEHFEQIAAYEASVMKDMDAYIGLRSGDNINEQADVPSERMKVHGQTVGKKVHRDIRVPKTRWVVLRYPNASMAQLAKMSTEAFEDFYFEVCNLDYGKMDKAMDSLVTLMNKTDKVRLTGPGTDLTFSIKDIPAIKCSGHLNIPDGEVYSAPVRDSVNGTVSYNTPSPYNGYTFENVQLKFENGQIVEATANDSERINKIFDTDEGARYVGEFAIGVNPYILHPMGDILFDEKIDGSFHFTPGQAYDDAWNGNNSNIHWDLVCIQRPEYGGGEIYFDDVLIRKDGRFVVPELEALNPENLK | not soluble
8 | MAMITGGELVVRTLIKAGVEHLFGLHGSHIDTIFQACLDHDVPIIDTRHEAAAGHAAEGYARAGAKLGVALVTAGGGFTNAVTPIANAWLDRTPVLFLTGSGALRDDETNTLQAGIDQVAMAAPITKWAHRVMATEHIPRLVMQAIRAALSAPRGPVLLDLPWDILMNQIDEDSVIIPDLVLSAHGARPDPADLDQALALLRKAERPVIVLGSEASRTARKTALSAFVAATGVPVFADYEGLSMLSGLPDAMRGGLVQNLYSFAKADAAPDLVLMLGARFGLNTGHGSGQLIPHSAQVIQVDPDACELGRLQGIALGIVADVGGTIEALAQATAQDAAWPDRGDWCAKVTDLAQERYASIAAKSSSEHALHPFHASQVIAKHVDAGVTVVADGALTYLWLSEVMSRVKPGGFLCHGYLGSMGVGFGTALGAQVADLEAGRRTILVTGDGSVGYSIGEFDTLVRKQLPLIVIIMNNQSWGATLHFQQLAVGPNRVTGTRLENGSYHGVAAAFGADGYHVDSVESFSAALAQALAHNRPACINVAVALDPIPPEELILIGMDPFGSHHHHHH | soluble
9 | AASDSAQLKSAREDIKELLKTKFCHPIMVRLGWHDAGTYNKNIEEWPQRGGANGSLRFDVELKHGANAGLVNALNLLKPIKDKYSGVTYADLFQLASATAIEEAGGPKIPMKYGRVDVTEPEQCPEEGRLPDAGPPSPAQHLRDVFYRMGLNDKEIVALSGAHTLGRSRPDRSGWGKPETKYTKDGPGAPGGQSWTAQWLKFDNSYFKDIKERRDEDLLVLPTDAALFEDPSFKVYAEKYAADPEAFFKDYAEAHAKLSNLGAKFGPAEGFSLEGSPAGAAPEKFVAAKYSTGKD | soluble
10 | MGSDKIHHHHHHMKMATTHQSSTKQDILEYLHKHEKATALELAEVLDVTPQAIRRHLKDLETEELVLYSTSVQAAGMGRPQHLYELSRQGRDRLHRTMSDRFGDASGNFAVSLLDTLAETVGHDQFKSILEKQWQRKAKEYRDRVGNGSLRERVANLVELRKAEGFMAEYHAVDVNDTFESDRFILMEHNCAISNVAESFPSICGHELEMFAAVLPDCTVERTHWIIDGEHRCGYLVQVRH | not soluble
11 | MTYVLAESPEFYQDNVTDYTGQISSSDITNIQAAIDDVKASEQKVIFVVFLSSFDGVDPETWTQQALQANGGGNVLIYALAPEERQYGIQGGTQWTDAELDAANNAAFQALSQEDWAGSALALAESVGSSSSSSLEHHHHHH | not soluble
12 | MNFRTDSIDDLDKFKKEFKPVMHLKGDAFNQQLQSLINKYPQIQKNMKSEFIAYYDKEKNRETVKNYAWNLQKSINDIMQSYPSTKFVQFYKDDVSPSMVDGNGRLKSDTNVISIEGGKYDENKLEHHHHHH | soluble
13 | GANETTKQESPVVDTDINAVTNYIVGMCQKFLQKGEKVTPSSKLEELRTREDRLWDCLDTVEFVLDVEEIFDVTVPDEVADNFQTLQEIADFVVSERAKAGKFMKDQ | soluble
14 | GPGSMAETRKEEWSEPEVPGGRSEVVAGIKRRREKLELYQSASHKMKALMMNSAGIRSGLGANNELPVNPIWMKFPTRCVKPIHSVEEMREKLHYFSHSDDVMVVRYHQENCTACNALDKTFEFLCHQSADRYPNLKFYEVSKDATPQLTRNLVRYPQVKGFSGGHWTDLEFKPPAEFREELYSGVEREVTRRKREGQPVTALEAEEMYYSSAGPAMAQVLEESVVKFYCKAQARLHNYWKQVSVRRAWFFRKFVEPKVDDQVRDEWRLKSVFGEKLSYGPEPQMEEF | not soluble
15 | AEEELETPTPTQRGEAESRGDGLVDVMWEYKWENTGDAELYGPFTSAQMQTWVSEGYFPDGVYCRKLDPPGGQFYNSKRIDFDLYT | soluble
16 | MNPFQKIKSAVNKRQRFFINRTLQRKLTNQGMTVISANCVGAFILHDLHQPFNSPFVNLYLSPQDFLRYLQNIDFYLTQPLTFVQTEKSYPVGKLADLEIHFMHYHSEQEANEKWQLRTSRMKLDNLFIMMTDRDGVTEKDIQLFDQLPFKNKVIFTHKPYPAFKSAYYIKGFEKQNQVGDIFEFSGWNGKKYYDQFDYVKWFNHA | not soluble
17 | AHHHHHHGSLKLVENVVGRVSEEENKVPEVQVPQSSIDEELKKIVEQIKARIYVVGVGGAGCNTVNRMMEVGVTGAKIIAVNTDAQDLLKVKAHQKILIGKELTRGLGAGNDPKIGEEAAKESERELRDALEGADMVFITCGLGGGTGTGAAPVIAEIARKMGALTVSVVTLPFTMEGIRRAKNAEYGLKRLVKYSDTVIVIPNDKLLEVAPKLPIQMAFKVADEILVQAVKGITELITKPGLVNLDFNDVRAVMKDGGVAMIGIGESDSEKRALEAAEQALNSPLLDVDISGATGALIHISGADVKLEEAQQIIEYVTRNVDPKAQVIWGIQLEPELEKTIRVMVVITGVTSRYITPEEETPLETPEESPSIEISIPEL | soluble
18 | MEENLERTESLAREADDCHPIFRIAPSTVEFNKLRKRLLRHIRQAFDDFSMLSSGKKWLVALSGGKDSYGLLALLLDLKWRGLLPVEILACNLDQGQPGFPKHILPDFLNSYQIPHRIEYQDTYSIVTDKLVHTQTYCSLCSRLRRGNLYRIAREEGCSALVLGHHRDDVLETFFMNLFHGGRLAAMPGKLINDEGDLFVLRPLVYAAEEDMEKFSQAMQFPIIPCNLCGSQDGLQRNAMKEMLKDIERKMPGRKDTMIRALTNVRPSHLLDKKFFDFKNLF | not soluble
19 | MGSDKIHHHHHHAKSYSKAVTKIAGTKNYPIYHKVTKNGPSGKFTSTSYFKYGQIQSKQYVSTKKGNFWNIIVDGRPVGWVSENCFARNTISVANDVSLVKNSDYSFNTRDAINYATDSHGTAIDPDRVQVSQASVSTKATTVNYSYGKAKASVNIDVRSGNDEMGEANVTPKSGFKTTTTWNGGSKGSSRNWNAAHHYTSETTSNTFKSNGLTLRTRLFQPRFVSLGYGQSADKMGQVGVIPEGMTVNGGIFATSMFTSSSDQHGHIVSYNLNTIKSKYAVQNLTTMNWSTFKSYANNIKVSPYIKLGHGQSLGSSSDYIYVMANDNNYNNGPRSEEIIQIRKSDMKINKIWTFRIAENRYIHNATFVGDNTMYALFHNGGHNHYEYWKLTRNGDSWKATEVGATAGSFVSNSPVQGFAYGNGSFFIGFNDNIFKVSENGAAQKHYRFNTGREIEGLSANGSDLYVQFAQRAELTQGRF | not soluble
20 | MAHHHHHHMAKEVTTNHCNNSKWWKGRPYAKIPDGPAQRQAAVTISAILATAEATRLKHDNLKSTAAQAHSLAITAIKDAFYGKGETEAGDAFAYTKAEKCGRTTATGTAGAAIVEDLICLCTKGGGGQTTECYTSGPADVGKNKVGGVKVIVNDMIDHCPNISAELHLKPALITRRIAAFYAELGRQDGKKQYNKKSKNRGSGCNWMCSARS | not soluble
21 | MAHHHHHHSLRVVSGEFGGRPLKTLDGKITRPTSDKVRGAIFNMIGPYFNGGRVLDLFAGSGGLAIEAVSRGMSAAVLVEKNRKAQAIIQDNIIMTKAENRFTLLKMEAERAIDCLTGRFDLVFLDPPYAKETIVATIEALAAKNLLSEQVMVVCETDKTVLLPKEIATLGIWKEKIYGISKVTVYVNEG | soluble
22 | MSLNTQLAIIRSKGKEHICYREEECFVDVSYPMVTFTKGEDDFEIVKCDHPSMEETFLYQESRLSIVIEMYHNGWPALSLKDPVTHEIYTVLTVNLEDKAAFSLPDRAFVDINNNPDAMEFLLSNKLAEDTGYRRQSGWVSYPMVTLNLPTFYRLDPHAFSAILNIREGHHHHHH | soluble
23 | MELAKFIGLTTFQDILEDCFALLVYERPEESNVGYFLEETQREVVADTVNAAILSTKPKGKNQSHSHLETLLRQLTACCLELRSLNDGQGEAFSLNRLLRTNNWKRTKKTT | soluble
